According to article PMC4738263 (Scientific Reports, 2016):

Biological target: the molecule itself
Test: crystal structure; dimeric HT cyt c552 without a His-tag obtained from E. coli by freeze-thaw, purified; sitting-drop vapor diffusion at room temperature; 1.8 Å

B1: Hydrogenobacter thermophilus cytochrome c552, wild type, without a His-tag (holo protein) (natural protein, UniProt P15452 19-98, looked up)
chain: NEQLAKQKGCMACHDLKAKKVGPAYADVAKKYAGRKDAVDYLAGKIKKGGSGVWGSVPMPPQNVTDAEAKQLAQWILSIK
modifications: heme c attached (holo protein)
- stoichiometry N: 2
